Where only a bound is given, the exact number is not on record here.

B1: Seq8 (VHH)
VHH: QVQLQESGGGLVQAGGSLRLSCAASGYGFSEYAMGWFRQAPGKEREFVATISWSGRSTYYTDSVKGRFTISRDNAKNTVYLQMNSLKPDDTAVYYCARAGWGVVVSEWDYDYDYWGQGTQVTVSS
B2: Seq12 (VHH)
VHH: QVQLQESGGGLVQAGGSLRLSCAASGRTFSEYAMGWFRQAPGKEREFVATISWSGGSKYYTDSVKGRFTISRDNAKNTVYLQMNSLKPDDTAVYYCAAAGLGTVVSEWDYDYDYWGQGTQVTVSS
B3: Seq11 (VHH)
VHH: QVQLQESGGGLVQAGGSLRLSCAASGRKFSEYAMGWFRQAPGKEREFVATISWSGRLTYYTDSVKGRFTISRDNAKNTVYLQMNSLKPDDTAVYYCAGAGYGVVVSEWDYDYDYWGQGTQVTVSS
B4: Seq4 (VHH)
VHH: QVQLQESGGGLVQAGGSLRLSCAASGRSFSEYAMGWFRQAPGKEREFVATISWSGRATYYTDSVKGRFTISRDNAKNTVYLQMNSLKPDDTAVYYCARAGYGVVVSEWDYDYDYWGQGTQVTVSS
B5: Seq2 (VHH)
VHH: QVQLQESGGGLVQAGGSLRLSCAASGRGFSEYAMGWFRQAPGKEREFVATISWSGGGTYYTDSVKGRFTISRDNAKNTVYLQMNSLKPDDTAVYYCARAGFGVWVSEWDYDYDYWGQGTQVTVSS
B6: Seq7 (VHH)
VHH: QVQLQESGGGLVQAGGSLRLSCAASGLKFSETAMGWFRQAPGKEREFVATISWSGRSTYYTDSVKGRFTISRDNAKNTVYLQMNSLKPDDTAVYYCARAGYGVVVSEWDYDYDYWGQGTQVTVSS
B7: Seq5 (VHH)
VHH: QVQLQESGGGLVQAGGSLRLSCAASGRMFSEYAMGWFRQAPGKEREFVATISWSGKGTYYTDSVKGRFTISRDNAKNTVYLQMNSLKPDDTAVYYCARAGFGVYVSEWDYDYDYWGQGTQVTVSS
B8: Seq1 (VHH)
VHH: QVQLQESGGGLVQAGGSLRLSCAASGRTFSETAMGWFRQAPGKEREFVATISWSGRGTYYTDSVKGRFTISRDNAKNTVYLQMNSLKPDDTAVYYCAYAGYGVVVSEWDYDYDYWGQGTQVTVSS
B9: Seq6 (VHH)
VHH: QVQLQESGGGLVQAGGSLRLSCAASGRLFSEYAMGWFRQAPGKEREFVATISWSGRSTYYTDSVKGRFTISRDNAKNTVYLQMNSLKPDDTAVYYCAKAGWGVVVSEWDYDYDYWGQGTQVTVSS
B10: Seq3 (VHH)
VHH: QVQLQESGGGLVQAGGSLRLSCAASGRMFSETAMGWFRQAPGKEREFVATISWSGRGTYYTDSVKGRFTISRDNAKNTVYLQMNSLKPDDTAVYYCAGAGYGVYVSEWDYDYDYWGQGTQVTVSS

The target of the experiment is SARS-CoV-2 RBD (SARS-CoV-2, Wuhan-Hu-1, UniProt P0DTC2, biotinylated with an EZ-Link NHS-PEG4 biotinylation kit). The experiment can be described thus: BLI. In general terms: Biolayer interferometry detects binding as a change in optical thickness at a sensor tip.
B1: the “fold improvement in binding affinity over VHH-72” value (“fold improvement” for short) is more than 2 fold.
As to B2, the binding result is on record as “binds”.
For B3, the “fold improvement” value is more than 2 fold.
Still for that read-out and setting: next, B4: more than 2 fold.
With B5, the “fold improvement” value is more than 2 fold.
On to B6, for which the “fold improvement” value is more than 2 fold.
For the molecule B7, the “fold improvement” value is more than 2 fold.
The same measure, in the same setting: the same measure for B8: more than 2 fold; for B9: more than 2 fold.
On the same count and under the same terms, the same measure for B10: more than 2 fold.

Source of the values: publication doi:10.1101/2023.12.01.569227 (bioRxiv, 2023).
